Measured values published in PMC4121237, “Engineering Neprilysin Activity and Specificity to Create a Novel Therapeutic for Alzheimer’s Disease” (PLoS ONE, 2014).
Numbering of substitutions follows the chain as printed. Names and notes keep the numbering of the source.

B1: NEP G714K: single mutant G714K of the human NEP ectodomain (protein, UniProt P08473 52-750, looked up, variant G714K)
extracellular domain: YDDGICKSSDCIKSAARLIQNMDATTEPCTDFFKYACGGWLKRNVIPETSSRYGNFDILRDELEVVLKDVLQEPKTEDIVAVQKAKALYRSCINESAIDSRGGEPLLKLLPDIYGWPVATENWEQKYGASWTAEKAIAQLNSKYGKKVLINLFVGTDDKNSVNHVIHIDQPRLGLPSRDYYECTGIYKEACTAYVDFMISVARLIRQEERLPIDENQLALEMNKVMELEKEIANATAKPEDRNDPMLLYNKMTLAQIQNNFSLEINGKPFSWLNFTNEIMSTVNISITNEEDVVVYAPEYLTKLKPILTKYSARDLQNLMSWRFIMDLVSSLSRTYKESRNAFRKALYGTTSETATWRRCANYVNGNMENAVGRLYVEAAFAGESKHVVEDLIAQIREVFIQTLDDLTWMDAETKKRAEEKALAIKERIGYPDDIVSNDNKLNNEYLELNYKEDEYFENIIQNLKFSQSKQLKKLREKVDKDEWISGAAVVNAFYSSGRNQIVFPAGILQPPFFSAQQSNSLNYGGIGMVIGHEITHGFDDNGRNFNKDGDLVDWWTQQSASNFKEQSQCMVYQYGNFSWDLAGGQHLNGINTLGENIADNGGLGQAYRAYQNYIKKNGEEKLLPGLDLNHKQLFFLNFAQVWCGTYRPEYAVNSIKTDVHSPKNFRIIGTLQNSAEFSEAFHCRKNSYMNPEKKCRVW
modifications: extracellular domain
notes: single mutant G714K of the human NEP ectodomain
B2: NEP G399V: single mutant G399V of the human NEP ectodomain (protein, UniProt P08473 52-750, looked up, variant G399V)
extracellular domain: B1 extracellular domain with G349V, K664G
modifications: extracellular domain
notes: single mutant G399V of the human NEP ectodomain

How the values were obtained:
Format in all cases: biochemical
Bradykinin = test: Steady-state kinetics of peptide cleavage, fluorescence polarisation; settings: substrate Bradykinin; for Km / kcat: 37°C, pH 7.4; for Fold change in kcat/KM: ratio of wild-type NEP kcat/KM to that of the mutant
Experimental: (§1) For detailed kinetic characterisation of peptide cleavage by NEP, a similar assay to that above was used with modifications based on a published method. Peptides were synthesised by Bachem using 9-fluorenylmethyloxycarbonyl solid-phase peptide synthesis and were labelled with a N-terminal 5(6)FAM via a ε-aminocaproic acid linker and a C-terminal biotin via a lysine linker (Table S1). Purified peptides were supplied as trifluoroacetate salts with a purity ≥95%. The assay was performed in a 96-well microtitre plate and contained 50 mM HEPES (pH 7.4), 100 mM NaCl, 0.05% (w/v) BSA (Buffer A), 1–200 µM peptide substrate and 1–500 nM NEP protein. Reactions were incubated at 37°C before being stopped at various time points between 2 and 360 min by transferring 5 µL aliquots to 245 µL Buffer A containing 2 mM 1,10-phenanethroline (Sigma) and 2 µM avidin (Invitrogen). For peptide substrates containing disulphide bonds, 1 mM tris(2-carboxyethyl)phosphine (Thermo Scientific) was added to the stop solution. The fluorescence polarisation of the resulting solution was measured on a Victor plate reader and the amount of substrate cleaved was determined with reference to substrate-only controls with and without avidin. Initial rates were obtained by linear regression of the linear regions of time courses. Enzyme velocity was plotted as a function of substrate concentration and the Michaelis-Menten equation was used to fit the data, giving the parameters kcat and KM.

Angiotensin = test: as above; settings: substrate Angiotensin; for Km / kcat: 37°C, pH 7.4; for Fold change in kcat/KM: ratio of wild-type NEP kcat/KM to that of the mutant
Experimental: as §1

Aβ1–40 = test: as above; settings: for Km / kcat / Fold change in kcat/KM: substrate Aβ 1–40; for Km / kcat: 37°C, pH 7.4; for Fold change in kcat/KM: ratio of wild-type NEP kcat/KM to that of the mutant; for increase in kcat/KM (catalytic efficiency) on Aβ1–40 over wild-type NEP: substrate Aβ1–40, relative to wild-type NEP
Experimental: as §1

Glucagon = test: as above; settings: substrate Glucagon; for Km / kcat: 37°C, pH 7.4; for Fold change in kcat/KM: ratio of wild-type NEP kcat/KM to that of the mutant
Experimental: as §1

Neurotensin = test: as above; settings: substrate Neurotensin; for Km / kcat: 37°C, pH 7.4; for Fold change in kcat/KM: ratio of wild-type NEP kcat/KM to that of the mutant
Experimental: as §1

[1] = test system: Aβ1–40 or 1–42 and eight off-target peptides; test: High-throughput fluorescence polarisation screen of NEP variants; settings: high throughput screening, relative to wild-type
Experimental: To screen NEP variants for improved activity on and specificity towards Aβ a high-throughput assay was developed where cleavage activity on Aβ1–40 or 1–42 and eight off-target peptides (see Table S1) was determined by fluorescence polarisation. Peptide substrates were labelled with DY-505 or DY-647 at the N-terminus and biotin at the C-terminus. The biotin serves for increasing the molecular size of uncleaved peptides after addition of strepavidin, thereby increasing the assay window and measurable signals. Peptide cleavage assays were performed by incubating NEP variant samples in a microtitre plate containing assay solution composed of 60 nM peptide substrate in 50 mM HEPES (pH 7.4) containing 150 mM NaCl and 0.05% Pluronic F-68 (Sigma). […] The extent of peptide cleavage was determined by measuring the fluorescence polaristion of the stopped reactions on a plate reader (Tecan) with an appropriate set up of polarisation filters. […]
To rank these variants the change in activity on the Aβ1–40 peptide was divided by the average change in specificity on the other peptides and then by the specificity of the wild-type enzyme. […] At many other positions only a single amino acid substitution was detected as having improved specificity, and some of these provided the largest gains observed. […]

Molecule	Km (Bradykinin) [µM]	kcat (Bradykinin) [s⁻¹]	Fold change in kcat/KM (Bradykinin)	Km (Angiotensin) [µM]	kcat (Angiotensin) [s⁻¹]	Fold change in kcat/KM (Angiotensin)	Km (Aβ1–40) [µM]	kcat (Aβ1–40) [s⁻¹]	Fold change in kcat/KM (Aβ1–40)	increase in kcat/KM (catalytic efficiency) on Aβ1–40 over wild-type NEP (Aβ1–40) [fold]	Km (Glucagon) [µM]	kcat (Glucagon) [s⁻¹]	Fold change in kcat/KM (Glucagon)	Km (Neurotensin) [µM]	kcat (Neurotensin) [s⁻¹]	Fold change in kcat/KM (Neurotensin)	improvement in specificity ([1]; activity on Aβ1–40 relative to other peptides)	improvement in activity on Aβ [1] [fold]
B1	120 ± 8	7.4 ± 0.3	7.5	18 ± 1	12 ± 0.3	1.5	42 ± 0.7	1.9 ± 0.2	0.18	~6	42 ± 5	5.2 ± 0.3	1.5	10 ± 0.7	8.6 ± 0.2	0.98	approximately 12 fold	~7
B2	79 ± 10	0.15 ± 0.01	250	3.6 ± 0.4	0.73 ± 0.03	4.6	55 ± 7	2.7 ± 0.2	0.16	~6	20 ± 2	2.9 ± 0.1	1.2	12 ± 1	1.1 ± 0.04	8.2	–	–
